Binding and stoichiometry N data for four substances are collected here from PMC3469484.

Substitutions are numbered along the chain they refer to.

In series [1] the test system is T1, OhrR WT (Chromobacterium violaceum ATCC 12472), ORF:deafe3b3.
T1 sequence: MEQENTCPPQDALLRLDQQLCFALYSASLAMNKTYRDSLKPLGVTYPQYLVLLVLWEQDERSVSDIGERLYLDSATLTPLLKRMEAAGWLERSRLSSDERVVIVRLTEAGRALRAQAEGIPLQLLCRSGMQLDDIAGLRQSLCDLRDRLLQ
The experiment in a line: EMSA. The conditions noted are these: EMSA: 20 mM Tris-HCl pH 7.4, 50 mM KCl, 1 mM DTT, 1 mM EDTA, 5% glycerol, 0.05 mg/ml BSA, 0.1 mg/ml salmon sperm DNA, 25 C, 25 min; footprinting the same …. On the technique in general: A gel shift assay detects complexes by their altered migration in electrophoresis.

Series [2] relates to T2, OhrR C126S C126S (Chromobacterium violaceum ATCC 12472), ORF:deafe3b3.
T2 sequence: T1 sequence with C126S
In words: EMSA. The note with it: EMSA: 20 mM Tris-HCl pH 7.4, 50 mM KCl, 1 mM DTT, 1 mM EDTA, 5% glycerol, 0.05 mg/ml BSA, 0.1 mg/ml salmon sperm DNA, 25 C, 25 min; footprinting the same ….

Series [3] has as its system T1, OhrR WT (Chromobacterium violaceum ATCC 12472), ORF:deafe3b3. The experiment in a line: DNase I footprinting. The conditions noted are these: EMSA: 20 mM Tris-HCl pH 7.4, 50 mM KCl, 1 mM DTT, 1 mM EDTA, 5% glycerol, 0.05 mg/ml BSA, 0.1 mg/ml salmon sperm DNA, 25 C, 25 min; footprinting the same ….
The target of series [4] is Chromobacterium violaceum OhrR (CV0210), wild type, N-terminal histidine tag (Chromobacterium violaceum). The experiment in a line: cross-linking; intermolecular disulfide bond formed on oxidation, read by 14% nonreducing SDS-PAGE: DTT-reduced, desalted OhrR (10 µM) treated with 100 µM cumene hydroperoxide for 30 min, then alkylated with 100 mM NEM for 2 h; Coomassie stain.

With “TGAATTCAATCCGTGACGCCGCACAGGGCGCCGGAATGGAACATTCGCGCGCGAACCGGAAAGCGACTCAGCAACGCATCCAGCCTGTCGACACATGCCTCAGCCACATCAGGACTCCTTATCAAATTTTCAGGATCCTATGCAGCTTATCGTCATTTTGCTTGGCATAAAGTTTCTCCAGCCAAACGGCTTAAGCCCACCAACCATCAGGAGCACATCATGTCGATTGAAACCATTCTGTACCGGACCCAAGCCACCGTAAGCTTA (double strand) [ohrB promoter]”, the binding result in series [1] was “no binding”.
Turning to “TGGATCCCTCGCTGGCCGATCTGGGACGCGGCCCGGTGCGGGCGGCCGCCTGATCGCGGTTTCGCGCCCGCTTGGCGCGGGCGCGTCGCGGTTCCGCATAATAATAAATTGCTTGCAATTAAATAGTGCACTATTTATTATGCGGCCATGGAACAAGAAAACACGTGCCCGCCGCAGGACGCGCTTTTGCGGCTGGACCAGCAACTCTGCTTCGCGCTGTATTCCGCCAAGCTTA (double strand) [ohrR promoter]”, the binding result in series [2], in series [1] and in series [3] was “binds” in each case.
In general, stoichiometry N refers to the number of molecules, sites or subunits per partner or assembly. With “Chromobacterium violaceum OhrR (CV0210), wild type, N-terminal histidine tag (natural protein)”, the stoichiometry N in series [4] was 2.
Take “TAAGCTTGCGGTGGCTTCGGCGGTATACAGTACTTTTTGCAGAGGGTTCATCTGGCTCTCCTTGGCTTGACGCCGTTGCGATTAAAATAATGAGCTATTTAATAGTGCACTATCTAACTATCAAAACCCTGACGGGTTCATTGCAGCAGCCGGTCGCGCAGATCGCACAGCGACTGCCTCAATCCGGCGATATCGTCCAGTTGCATTCCGCTCCGGCAGGATCCA (double strand) [ohrA promoter]”: the binding entry in series [2], in series [1] and in series [3] was “binds” each time.
